Source: patent US20220204580A1 (AstraZeneca / MedImmune, published 2022)
Numbered stars: 1 amine (or outer) side, 2 acyl side, 3 side chain; on linkers, the order of the positions; unused ones are H or OH. Bridge positions count the residues as written; N and C are the ends. Square brackets hold non-standard residues; d marks the D form. Side chains are listed from the residue outwards. Ends that are not written are not given here. * marks the point of attachment. C18 diacid = O=C(O)CCCCCCCCCCCCCCCCC(=O)*; γGlu = O=C(O)[C@H](CCC(=O)[*:2])N[*:1]; Aib = CC(C)(N)C(=O)O

Columns and labels:
[1] = target: T1, human amylin receptor (calcitonin receptor co-expressed with receptor activity modifying protein, RAMP3) (human, UniProt P30988 25-474; O60896 24-148); assay: cell-based or functional assay
T1 sequence (looked up) 1: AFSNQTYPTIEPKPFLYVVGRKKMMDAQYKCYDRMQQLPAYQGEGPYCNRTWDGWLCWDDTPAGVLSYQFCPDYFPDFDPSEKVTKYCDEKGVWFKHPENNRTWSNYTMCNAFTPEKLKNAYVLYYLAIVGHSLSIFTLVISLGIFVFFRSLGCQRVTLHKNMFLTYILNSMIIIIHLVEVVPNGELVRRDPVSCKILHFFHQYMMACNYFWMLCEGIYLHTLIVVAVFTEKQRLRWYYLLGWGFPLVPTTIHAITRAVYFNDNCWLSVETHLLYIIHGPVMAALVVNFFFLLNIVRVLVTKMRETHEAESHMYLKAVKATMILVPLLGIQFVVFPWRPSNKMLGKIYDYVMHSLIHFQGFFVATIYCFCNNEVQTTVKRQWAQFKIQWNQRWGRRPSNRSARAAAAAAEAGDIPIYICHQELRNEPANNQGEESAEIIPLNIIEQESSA
T1 sequence (looked up) 2: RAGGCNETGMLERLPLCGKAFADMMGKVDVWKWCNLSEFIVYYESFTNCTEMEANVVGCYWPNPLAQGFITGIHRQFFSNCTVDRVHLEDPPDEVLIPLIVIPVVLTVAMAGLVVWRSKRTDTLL

[2] = target: T2, human calcitonin receptor (human, UniProt P30988 25-474); assay: cell-based or functional assay
T2 sequence (looked up): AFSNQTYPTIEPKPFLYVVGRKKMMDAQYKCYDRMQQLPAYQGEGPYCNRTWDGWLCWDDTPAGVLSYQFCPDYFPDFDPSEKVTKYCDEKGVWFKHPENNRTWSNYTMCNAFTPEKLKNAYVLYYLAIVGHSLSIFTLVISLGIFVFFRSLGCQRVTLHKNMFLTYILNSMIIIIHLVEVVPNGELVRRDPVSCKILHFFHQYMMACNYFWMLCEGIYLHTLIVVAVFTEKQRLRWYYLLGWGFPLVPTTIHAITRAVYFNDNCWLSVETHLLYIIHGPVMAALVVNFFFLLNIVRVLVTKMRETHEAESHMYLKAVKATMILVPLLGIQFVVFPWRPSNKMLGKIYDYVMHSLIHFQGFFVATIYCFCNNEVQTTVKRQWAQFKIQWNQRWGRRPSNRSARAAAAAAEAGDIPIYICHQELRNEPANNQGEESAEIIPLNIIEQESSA

| Binder | EC50 (cAMP production) [1] [pM] | Ratio (EC50 hCTR / EC50 hAMYR3) [1] | EC50 (cAMP production) [2] [pM] |
| --- | --- | --- | --- |
| K([γGlu-C18 diacid])CNTATCATQRLANFLVHSS[Aib]NFGPILPPTRVGSNTY-NH2 (disulfide 2-7; N-terminus assumed; SMILES CC[C@H](C)[C@H](NC(=O)[C@@H]1CCCN1C(=O)CNC(=O)[C@H](Cc1ccccc1)NC(=O)[C@H](CC(N)=O)NC(=O)C(C)(C)NC(=O)[C@H](CO)NC(=O)[C@H](CO)NC(=O)[C@H](Cc1c[nH]cn1)NC(=O)[C@@H](NC(=O)[C@H](CC(C)C)NC(=O)[C@H](Cc1ccccc1)NC(=O)[C@H](CC(N)=O)NC(=O)[C@H](C)NC(=O)[C@H](CC(C)C)NC(=O)[C@H](CCCNC(=N)N)NC(=O)[C@H](CCC(N)=O)NC(=O)[C@@H](NC(=O)[C@H](C)NC(=O)[C@@H]1CSSC[C@H](NC(=O)[C@@H](N)CCCCNC(=O)CC[C@H](NC(=O)CCCCCCCCCCCCCCCCC(=O)O)C(=O)O)C(=O)N[C@@H](CC(N)=O)C(=O)N[C@@H]([C@@H](C)O)C(=O)N[C@@H](C)C(=O)N[C@@H]([C@@H](C)O)C(=O)N1)[C@@H](C)O)C(C)C)C(=O)N[C@@H](CC(C)C)C(=O)N1CCC[C@H]1C(=O)N1CCC[C@H]1C(=O)N[C@H](C(=O)N[C@@H](CCCNC(=N)N)C(=O)N[C@H](C(=O)NCC(=O)N[C@@H](CO)C(=O)N[C@@H](CC(N)=O)C(=O)N[C@H](C(=O)N[C@@H](Cc1ccc(O)cc1)C(N)=O)[C@@H](C)O)C(C)C)[C@@H](C)O) [Peptide 63 (SEQ ID NO: 63)] | 76 | 5 | 375 |
| K([γGlu-C18 diacid])CNTATCATQRLANFLVHSS[Aib]NFGPI[dL]PPTNVGSNTY-NH2 (disulfide 2-7; N-terminus assumed; SMILES CC[C@H](C)[C@H](NC(=O)[C@@H]1CCCN1C(=O)CNC(=O)[C@H](Cc1ccccc1)NC(=O)[C@H](CC(N)=O)NC(=O)C(C)(C)NC(=O)[C@H](CO)NC(=O)[C@H](CO)NC(=O)[C@H](Cc1c[nH]cn1)NC(=O)[C@@H](NC(=O)[C@H](CC(C)C)NC(=O)[C@H](Cc1ccccc1)NC(=O)[C@H](CC(N)=O)NC(=O)[C@H](C)NC(=O)[C@H](CC(C)C)NC(=O)[C@H](CCCNC(=N)N)NC(=O)[C@H](CCC(N)=O)NC(=O)[C@@H](NC(=O)[C@H](C)NC(=O)[C@@H]1CSSC[C@H](NC(=O)[C@@H](N)CCCCNC(=O)CC[C@H](NC(=O)CCCCCCCCCCCCCCCCC(=O)O)C(=O)O)C(=O)N[C@@H](CC(N)=O)C(=O)N[C@@H]([C@@H](C)O)C(=O)N[C@@H](C)C(=O)N[C@@H]([C@@H](C)O)C(=O)N1)[C@@H](C)O)C(C)C)C(=O)N[C@H](CC(C)C)C(=O)N1CCC[C@H]1C(=O)N1CCC[C@H]1C(=O)N[C@H](C(=O)N[C@@H](CC(N)=O)C(=O)N[C@H](C(=O)NCC(=O)N[C@@H](CO)C(=O)N[C@@H](CC(N)=O)C(=O)N[C@H](C(=O)N[C@@H](Cc1ccc(O)cc1)C(N)=O)[C@@H](C)O)C(C)C)[C@@H](C)O) [Peptide 59 (SEQ ID NO: 59)] | 157 | 5 | 809 |
| K([γGlu-C18 diacid])CNTATCATQRLANFLVHSS[Aib]NFGP[dI]LPPTNVGSNTY-NH2 (disulfide 2-7; N-terminus assumed; SMILES CC[C@@H](C)[C@@H](NC(=O)[C@@H]1CCCN1C(=O)CNC(=O)[C@H](Cc1ccccc1)NC(=O)[C@H](CC(N)=O)NC(=O)C(C)(C)NC(=O)[C@H](CO)NC(=O)[C@H](CO)NC(=O)[C@H](Cc1c[nH]cn1)NC(=O)[C@@H](NC(=O)[C@H](CC(C)C)NC(=O)[C@H](Cc1ccccc1)NC(=O)[C@H](CC(N)=O)NC(=O)[C@H](C)NC(=O)[C@H](CC(C)C)NC(=O)[C@H](CCCNC(=N)N)NC(=O)[C@H](CCC(N)=O)NC(=O)[C@@H](NC(=O)[C@H](C)NC(=O)[C@@H]1CSSC[C@H](NC(=O)[C@@H](N)CCCCNC(=O)CC[C@H](NC(=O)CCCCCCCCCCCCCCCCC(=O)O)C(=O)O)C(=O)N[C@@H](CC(N)=O)C(=O)N[C@@H]([C@@H](C)O)C(=O)N[C@@H](C)C(=O)N[C@@H]([C@@H](C)O)C(=O)N1)[C@@H](C)O)C(C)C)C(=O)N[C@@H](CC(C)C)C(=O)N1CCC[C@H]1C(=O)N1CCC[C@H]1C(=O)N[C@H](C(=O)N[C@@H](CC(N)=O)C(=O)N[C@H](C(=O)NCC(=O)N[C@@H](CO)C(=O)N[C@@H](CC(N)=O)C(=O)N[C@H](C(=O)N[C@@H](Cc1ccc(O)cc1)C(N)=O)[C@@H](C)O)C(C)C)[C@@H](C)O) [Peptide 61 (SEQ ID NO: 61)] | 99 | 7 | 654 |
| K([γGlu-C18 diacid])CNTATCATQRLANFLVHSS[Aib]NFGPIL[dP]PTNVGSNTY-NH2 (disulfide 2-7; N-terminus assumed; SMILES CC[C@H](C)[C@H](NC(=O)[C@@H]1CCCN1C(=O)CNC(=O)[C@H](Cc1ccccc1)NC(=O)[C@H](CC(N)=O)NC(=O)C(C)(C)NC(=O)[C@H](CO)NC(=O)[C@H](CO)NC(=O)[C@H](Cc1c[nH]cn1)NC(=O)[C@@H](NC(=O)[C@H](CC(C)C)NC(=O)[C@H](Cc1ccccc1)NC(=O)[C@H](CC(N)=O)NC(=O)[C@H](C)NC(=O)[C@H](CC(C)C)NC(=O)[C@H](CCCNC(=N)N)NC(=O)[C@H](CCC(N)=O)NC(=O)[C@@H](NC(=O)[C@H](C)NC(=O)[C@@H]1CSSC[C@H](NC(=O)[C@@H](N)CCCCNC(=O)CC[C@H](NC(=O)CCCCCCCCCCCCCCCCC(=O)O)C(=O)O)C(=O)N[C@@H](CC(N)=O)C(=O)N[C@@H]([C@@H](C)O)C(=O)N[C@@H](C)C(=O)N[C@@H]([C@@H](C)O)C(=O)N1)[C@@H](C)O)C(C)C)C(=O)N[C@@H](CC(C)C)C(=O)N1CCC[C@@H]1C(=O)N1CCC[C@H]1C(=O)N[C@H](C(=O)N[C@@H](CC(N)=O)C(=O)N[C@H](C(=O)NCC(=O)N[C@@H](CO)C(=O)N[C@@H](CC(N)=O)C(=O)N[C@H](C(=O)N[C@@H](Cc1ccc(O)cc1)C(N)=O)[C@@H](C)O)C(C)C)[C@@H](C)O) [Peptide 60 (SEQ ID NO: 60)] | 96 | 11 | 1030 |
| K([γGlu-C18 diacid])KCNTATCATQRLANFLVHSS[Aib]NFGPILPPTNVGSNTP-NH2 (disulfide 3-8; N-terminus assumed; SMILES CC[C@H](C)[C@H](NC(=O)[C@@H]1CCCN1C(=O)CNC(=O)[C@H](Cc1ccccc1)NC(=O)[C@H](CC(N)=O)NC(=O)C(C)(C)NC(=O)[C@H](CO)NC(=O)[C@H](CO)NC(=O)[C@H](Cc1c[nH]cn1)NC(=O)[C@@H](NC(=O)[C@H](CC(C)C)NC(=O)[C@H](Cc1ccccc1)NC(=O)[C@H](CC(N)=O)NC(=O)[C@H](C)NC(=O)[C@H](CC(C)C)NC(=O)[C@H](CCCNC(=N)N)NC(=O)[C@H](CCC(N)=O)NC(=O)[C@@H](NC(=O)[C@H](C)NC(=O)[C@@H]1CSSC[C@H](NC(=O)[C@H](CCCCN)NC(=O)[C@@H](N)CCCCNC(=O)CC[C@H](NC(=O)CCCCCCCCCCCCCCCCC(=O)O)C(=O)O)C(=O)N[C@@H](CC(N)=O)C(=O)N[C@@H]([C@@H](C)O)C(=O)N[C@@H](C)C(=O)N[C@@H]([C@@H](C)O)C(=O)N1)[C@@H](C)O)C(C)C)C(=O)N[C@@H](CC(C)C)C(=O)N1CCC[C@H]1C(=O)N1CCC[C@H]1C(=O)N[C@H](C(=O)N[C@@H](CC(N)=O)C(=O)N[C@H](C(=O)NCC(=O)N[C@@H](CO)C(=O)N[C@@H](CC(N)=O)C(=O)N[C@H](C(=O)N1CCC[C@H]1C(N)=O)[C@@H](C)O)C(C)C)[C@@H](C)O) [Peptide 58 (SEQ ID NO: 58)] | 71 | 1 | 65 |
| K([γGlu-C18 diacid])CNTATCATQRLANF[dL]VHSS[Aib]NFGPILPPTNVGSNTY-NH2 (disulfide 2-7; N-terminus assumed; SMILES CC[C@H](C)[C@H](NC(=O)[C@@H]1CCCN1C(=O)CNC(=O)[C@H](Cc1ccccc1)NC(=O)[C@H](CC(N)=O)NC(=O)C(C)(C)NC(=O)[C@H](CO)NC(=O)[C@H](CO)NC(=O)[C@H](Cc1c[nH]cn1)NC(=O)[C@@H](NC(=O)[C@@H](CC(C)C)NC(=O)[C@H](Cc1ccccc1)NC(=O)[C@H](CC(N)=O)NC(=O)[C@H](C)NC(=O)[C@H](CC(C)C)NC(=O)[C@H](CCCNC(=N)N)NC(=O)[C@H](CCC(N)=O)NC(=O)[C@@H](NC(=O)[C@H](C)NC(=O)[C@@H]1CSSC[C@H](NC(=O)[C@@H](N)CCCCNC(=O)CC[C@H](NC(=O)CCCCCCCCCCCCCCCCC(=O)O)C(=O)O)C(=O)N[C@@H](CC(N)=O)C(=O)N[C@@H]([C@@H](C)O)C(=O)N[C@@H](C)C(=O)N[C@@H]([C@@H](C)O)C(=O)N1)[C@@H](C)O)C(C)C)C(=O)N[C@@H](CC(C)C)C(=O)N1CCC[C@H]1C(=O)N1CCC[C@H]1C(=O)N[C@H](C(=O)N[C@@H](CC(N)=O)C(=O)N[C@H](C(=O)NCC(=O)N[C@@H](CO)C(=O)N[C@@H](CC(N)=O)C(=O)N[C@H](C(=O)N[C@@H](Cc1ccc(O)cc1)C(N)=O)[C@@H](C)O)C(C)C)[C@@H](C)O) [Peptide 62 (SEQ ID NO: 62)] | 167 | 43 | 7250 |
